In the MegaScale stability set (Tsuboyama et al. 2023):

B1: 6NMW (parent)
chain: QGDIVVALYPYDGIHPDDLSFKKGEKMKVLEEHGEWWKAKSLLTKKEGFIPSNYVAKLN

Variants of: B1
Experiment: folding stability dG (cDNA display proteolysis); higher = more stable
Settings: PBS, room temperature

Folding stability dG [kcal/mol], by site and new letter:
E35: Q 3.92 | V 3.94 | M 4.06 | W 4.11 | Y 4.96 | G 3.14 | T 3.73 | I 3.97 | P 3.64 | K 3.94 | H 4.61 | C 4.75 | N 4.01 | S 3.82 | A 4.01 | R 3.59 | L 4.23
W37: F 4.79 | P 1.7 | T 2.67 | A 2.24 | G -0.016 | R 2.28 | C 3.04 | D 0.168 | E -0.118 | V 3.04 | S 2.26 | Q 1.99 | I 3.96 | M 4.7 | H 2.59 | N 1.19 | K 3.8
L30: K 0.883 | W 1.5 | I 3.29 | F 2.37 | E 1.21 | C 2.42 | A 1.01 | N 0.519 | G 0.263 | T 2.04 | V 2.34 | Q 1.56 | Y 2.27 | S 1.5 | M 2.85 | R 0.866 | D 0.53 | H 0.943
G34: T 1.48 | L 1.52 | S 2 | H 1.67 | F 1.15 | D 1.96 | R 1.65 | V 1.41 | N 2.22 | C 2.75 | I 1.4 | K 1.84 | W 1.24 | Q 1.74 | A 2.02 | E 1.86 | M 1.59 | P 1.5 | Y 1.45
K38: M 3.87 | Q 2.39 | E 1.49 | P 0.337 | R 4.06 | N 1.45 | F 4.92 | A 1.72 | H 2.92 | I 3.44 | G 0.033 | C 3.63
H33: R 3.41 | G 3.24 | Q 3.06 | Y 3.6 | P 1.43 | L 3.41 | A 3.01 | W 3.34 | M 3.29 | D 2.75 | N 3.62 | V 3.16 | C 4.43 | T 3.12 | F 3.74 | K 3.38 | I 3.23
V29: Q 0.108 | S -0.702 | C 1.16 | A 0.496 | R 0.08 | F 1.05 | P 0.224 | T 0.988 | M 1.93 | K 1.25 | W -0.028 | L 4.64 | Y 0.219
E32: K 4.72 | G 3.33 | A 4.31 | M 4.65 | Q 4.09 | R 4.29 | D 4.38 | Y 4.42 | F 4.1 | H 3.54 | C 4.44 | V 4.48 | I 4.6 | W 3.48 | P 2.54 | N 3.83 | L 4.21 | T 3.95
W36: H 2.3 | Q 2.51 | Y 3.49 | F 3.29 | A 1.68 | N 2.13 | S 2.15 | D 0.269 | M 3.29 | R 4.45 | C 3.06 | K 3.49 | L 2.85 | E 1.14 | V 3.3 | P 1.14 | I 3.52 | T 2.87 | G 0.695
E31: W 3.2 | V 2.64 | P -0.549 | Q 3.11 | D 3.05 | F 3.14 | R 2.56 | H 2.63 | I 2.98 | M 3.05 | C 4.09 | G 2.77 | A 3.46 | Y 3.07 | T 2.69 | L 2.67 | K 2.67
